In test [1] the target is NIPBL R1895T (CdLS missense mutation) GAL4-DNA-binding domain fusion (human) (UniProt Q6KC79). The test is described as follows: two-hybrid.
Test [2] has as its target NIPBL R1856G (CdLS missense mutation) GAL4-DNA-binding domain fusion (human) (UniProt Q6KC79). Briefly: two-hybrid.

For “full-length HDAC3 fused to the GAL4-activating domain (from UniProt O15379 1-428) (enzyme)”, the β-galactosidase activity compared to the wild-type construct in test [1] and in test [2] was 50% each time.

Source of the values: article PMC2582609.
